Substrate in data set [1]: N[C@@H](CCC(=O)N[C@@H](CSc1ccc([N+](=O)[O-])cc1[N+](=O)[O-])C(=O)NCC(=O)O)C(=O)O
As to the kind of experiment: ATP-dependent uptake of 3H-DNPSG into RLIP76-proteoliposomes, filtration. Type of data set: biochemical, Homo sapiens. Conditions: ATP co-substrate, 37°C, 5 min, random bi-bi fit, labelled compound.

Substrate in data set [2]: Nc1ncnc2c1ncn2[C@@H]1O[C@H](COP(=O)(O)OP(=O)(O)OP(=O)(O)O)[C@@H](O)[C@H]1O
In words: ATP dependence of 3H-DNPSG uptake into RLIP76-proteoliposomes. Type of data set: biochemical, Homo sapiens. Conditions: co-substrate DNP-SG, 37°C, 5 min, random bi-bi fit.

B1: recombinant RLIP76 (Homo sapiens) (protein)
chain: MTECFLPPTSSPSEHRRVEHGSGLTRTPSSEEISPTKFPGLYRTGEPSPPHDILHEPPDVVSDDEKDHGKKKGKFKKKEKRTEGYAAFQEDSSGDEAESPSKMKRSKGIHVFKKPSFSKKKEKDFKIKEKPKEEKHKEEKHKEEKHKEKKSKDLTAADVVKQWKEKKKKKKPIQEPEVPQIDVPNLKPIFGIPLADAVERTMMYDGIRLPAVFRECIDYVEKYGMKCEGIYRVSGIKSKVDELKAAYDREESTNLEDYEPNTVASLLKQYLRDLPENLLTKELMPRFEEACGRTTETEKVQEFQRLLKELPECNYLLISWLIVHMDHVIAKELETKMNIQNISIVLSPTVQISNRVLYVFFTHVQELFGNVVLKQVMKPLRWSNMATMPTLPETQAGIKEEIRRQEFLLNCLHRDLQGGIKDLSKEERLWEVQRILTALKRKLREAKRQECETKIAQEIASLSKEDVSKEEMNENEEVINILLAQENEILTEQEELLAMEQFLRRQIASEKEEIERLRAEIAEIQSRQQHGRSETEEYSSESESESEDEEELQIILEDLQRQNEELEIKNNHLNQAIHEEREAIIELRVQLRLLQMQRAKAEQQAQEDEEPEWRGGAVQPPRDGVLEPKAAKEQPKAGKEPAKPSPSRDRKETSI
With B1, the Km in data set [1] came out at 55 ± 4 µM; in data set [2], 4400 ± 700 µM.

For orientation: Km means the substrate concentration at which the rate is half of its maximum.

Values taken from article PMC2664085.
